To fix the notation:
B1: HDV Ribozyme (parent)
chain: GGCCGGCAUGGUCCCAGCCUCCUCGCUGGCGCCGGCUGGGCAACAUUCCGAGGGGACCGUCCCCUCGGUAAUGGCGAAUGGGACCCA

Among the data in the RNAGym collection of RNA variant scans (doi:10.7554/elife.80360) are self-cleavage values, retold here.

Variants of B1 are the subject of the data set. Put plainly: self-cleavage, relative activity (ratio to wild type); higher = more cleavage; co-transcriptional.
As for GGCCGGCAUGCUCCCAGCCUCCUCGCUGGCGCCGGCUGGGCAACAUUCCGAGGGAACCGUCCCCUCGGUAAUGGCGAAUGGGACCCA, the self-cleavage turned out to be 0.407.
As for GGCCGGCAUGCUCCCAGCCUCCUCGCUGGCGCCGGCUGGGCAACAUACCGAGGGGACCGUCCCCUCGGUAAUGGCGAAUGGGACCCA, the figure is 0.151; as for GGCCGGCAUGUUCCCUGCCUCCUCGCUGGCGCCGGCUGGGCAACAUUCCGAGGGGACCGUCCCCUCGGUAAUGGCGAAUGGGACCCA, 0.673.
Turning to GGCCGGCAUGUUCCCGGCCUCCUCGCUGGCGCCGGCUGGGCAACAUUCCGAGGGGACCGUCCCCUCGGUAAUGGCGAAUGGGACCCA, the self-cleavage amounted to 0.309.
As for GGCCGGCAUGCUCCCAGCCUCCUCGCUGGCGCCGGCUGGGCAACAUUCCGAGGGGACCAUCCCCUCGGUAAUGGCGAAUGGGACCCA, the figure is 0.434; as for GGCCGGCAUGCUCCCAGCCUCCUCGCUGGAGCCGGCUGGGCAACAUUCCGAGGGGACCGUCCCCUCGGUAAUGGCGAAUGGGACCCA, 0.0804; as for GGCCGGCAUGCUCCCAGCCCCCUCGCUGGCGCCGGCUGGGCAACAUUCCGAGGGGACCGUCCCCUCGGUAAUGGCGAAUGGGACCCA, 0.0437.
Then GGCCGGCAUGUUUCCAGCCUCCUCGCUGGCGCCGGCUGGGCAACAUUCCGAGGGGACCGUCCCCUCGGUAAUGGCGAAUGGGACCCA, with 0.0674.
Regarding GGCCGGCAUGCUCCCAGCCUUCUCGCUGGCGCCGGCUGGGCAACAUUCCGAGGGGACCGUCCCCUCGGUAAUGGCGAAUGGGACCCA, the self-cleavage was 0.156.
Then GGCCGGCAUGCUCCCAGCCUCCUCGCGGGCGCCGGCUGGGCAACAUUCCGAGGGGACCGUCCCCUCGGUAAUGGCGAAUGGGACCCA, with 0.356; and GGCCGGCAUGCUCCCAGCCUCCUCGCUGGCGCCGGCUGGGCAACAUUCCGAGGGGACCGUCCCCUCGGUAAUGGCGAAUGGAACCCA, with 0.262; and GGCCGGCAUGCUCCCAGCCUCCUCGCUGGCGCCGGCUGGGCAACAUUCCGAGGGGACGGUCCCCUCGGUAAUGGCGAAUGGGACCCA, with 0.369.
Then GGCCGGCAUGUUCCCAGCGUCCUCGCUGGCGCCGGCUGGGCAACAUUCCGAGGGGACCGUCCCCUCGGUAAUGGCGAAUGGGACCCA, with 0.058.
As for GGCCGGCAUGUUCCCAGCAUCCUCGCUGGCGCCGGCUGGGCAACAUUCCGAGGGGACCGUCCCCUCGGUAAUGGCGAAUGGGACCCA, the self-cleavage came to 0.0382.
As for GGCCGGCAUGCUCCCAGCCUCCUCGCUGGCGCCGGCUGGGCAACAUUCCGAGGGGACCGUCCCCUCGGUAAUGGCGAAUGGGACCUA, the figure is 0.38; as for GGCCGGCAUGUUCCCAGCCUCCUCGCUGGUGCCGGCUGGGCAACAUUCCGAGGGGACCGUCCCCUCGGUAAUGGCGAAUGGGACCCA, 0.0923; as for GGCCGGCAUGUUCCCAGCCUCCUCGCUGGCGUCGGCUGGGCAACAUUCCGAGGGGACCGUCCCCUCGGUAAUGGCGAAUGGGACCCA, 0.215.
As for GGCCGGCAUGCUCCCAGCCUCCUCGCUAGCGCCGGCUGGGCAACAUUCCGAGGGGACCGUCCCCUCGGUAAUGGCGAAUGGGACCCA, the figure is 0.0225; as for GGCCGGCAUGCUCCCAGCCUCCUCGCUGGCGCCGGCUGUGCAACAUUCCGAGGGGACCGUCCCCUCGGUAAUGGCGAAUGGGACCCA, 0.
As for GGCCGGCAUGUUCCCAGCCUCCUCGCUGGCGCCGGCUGGGCUACAUUCCGAGGGGACCGUCCCCUCGGUAAUGGCGAAUGGGACCCA, the figure is 0.0852; as for GGCCGGCAUGCUCCCAGCCUCCUCGCUGGCGCCGGCUGGGCAACAUUCGGAGGGGACCGUCCCCUCGGUAAUGGCGAAUGGGACCCA, 0.0504; as for GGCCGGCAUGUUCCCAGCCUCCUCGCUGGCGCCGGCUGGGCAACAUUCCGAGGGGACCGUCCCCUCGGUAAUGGCGAUUGGGACCCA, 0.0755.
For GGCCGGCAUGCUCCCAGCCUCCUCGCUGGCGCCGUCUGGGCAACAUUCCGAGGGGACCGUCCCCUCGGUAAUGGCGAAUGGGACCCA, the self-cleavage turned out to be 0.271.
In the case of GGCCGGCAUGCUCCCAGCCUCCUCGCUGGCGCCGGCUUGGCAACAUUCCGAGGGGACCGUCCCCUCGGUAAUGGCGAAUGGGACCCA, the self-cleavage was determined as 0.0845.
As for GGCCGGCAUGCUCCCAGCCUCCUCGCUGGCGCCGGCUGGGAAACAUUCCGAGGGGACCGUCCCCUCGGUAAUGGCGAAUGGGACCCA, the figure is 0.185; as for GGCCGGCAUGCUCCCAGCCUCCUCGCUGGCGCCGGCUGGGCAACAGUCCGAGGGGACCGUCCCCUCGGUAAUGGCGAAUGGGACCCA, 0.133.
Then GGCCGGCAUGCUCCCAGCCUCCUCGCUGGCGCCGGCUGGGCAACAUUCCGAGGGGACCGUCCCCUCGGUAAUGGCGAAUGGGAUCCA, with 0.18.
Turning to GGCCGGCAUGUUCCCAGCCUCCUCGGUGGCGCCGGCUGGGCAACAUUCCGAGGGGACCGUCCCCUCGGUAAUGGCGAAUGGGACCCA, the self-cleavage was 0.527.
For GGCCGGCAUGUUCCAAGCCUCCUCGCUGGCGCCGGCUGGGCAACAUUCCGAGGGGACCGUCCCCUCGGUAAUGGCGAAUGGGACCCA, the self-cleavage was 0.155.
As for GGCCGGCAUGUUCCUAGCCUCCUCGCUGGCGCCGGCUGGGCAACAUUCCGAGGGGACCGUCCCCUCGGUAAUGGCGAAUGGGACCCA, the figure is 0.258; as for GGCCGGCAUGCUCCCAGCCUCGUCGCUGGCGCCGGCUGGGCAACAUUCCGAGGGGACCGUCCCCUCGGUAAUGGCGAAUGGGACCCA, 0.0386; as for GGCCGGCAUGUUCUCAGCCUCCUCGCUGGCGCCGGCUGGGCAACAUUCCGAGGGGACCGUCCCCUCGGUAAUGGCGAAUGGGACCCA, 0.406.
